For one data set, the target named is hnRNP-E1(G292A) (Homo sapiens, UniProt Q15365 SEQ:1-356, G292A). The data set is described as follows: no L-homocysteine; Scatchard; no gel-shift signal in this condition (FIG. 1B). Conditions: tags: GST fusion (pGEX-4T-1, E. coli BL21); label: 35S. On the procedure:
(§1) Specific binding was determined by subtracting values of non-specific binding with GST from those of total binding with GST-hnRNP-E1; (however, in Table 1 and FIG. 6G, non-specific binding using bovine serum albumin (BSA) was subtracted from total binding to GST-hnRNP-E1 to determine specific binding). The K_D was calculated from a Scatchard plot using GraphPad Prism 6 from GraphPad Software (San Diego, Calif.), as previously described in the art.

The target in a further data set is hnRNP-E1(C293S) (Homo sapiens, UniProt Q15365 SEQ:1-356). The data set is described as follows: no L-homocysteine; Scatchard. The conditions noted are these: tags: GST fusion (pGEX-4T-1, E. coli BL21); label: 35S. On the procedure:
as §1

In data set [1] the target is hnRNP-E1 (PCBP1) wild-type (Homo sapiens, UniProt Q15365 SEQ:1-356). As to the kind of experiment: EMSA; 15 uM L-homocysteine; complete quenching of signal. The conditions noted are these: tags: GST fusion (pGEX-4T-1, E. coli BL21). Background: In EMSA bound probe runs differently from free probe, usually more slowly.
Chain of hnRNP-E1 (PCBP1) wild-type (Q15365 whole entry A205V, the tested form may be a part): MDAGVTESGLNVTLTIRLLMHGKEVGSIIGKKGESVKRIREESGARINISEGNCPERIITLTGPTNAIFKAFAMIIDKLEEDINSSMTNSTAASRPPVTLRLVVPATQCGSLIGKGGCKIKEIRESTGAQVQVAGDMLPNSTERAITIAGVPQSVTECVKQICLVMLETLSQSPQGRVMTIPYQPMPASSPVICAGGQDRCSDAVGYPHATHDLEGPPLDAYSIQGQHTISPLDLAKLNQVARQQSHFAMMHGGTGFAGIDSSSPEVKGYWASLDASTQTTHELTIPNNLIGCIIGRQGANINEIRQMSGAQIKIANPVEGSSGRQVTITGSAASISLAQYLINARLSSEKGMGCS

Chain of hnRNP-E1(C293S) (Q15365 whole entry A205V/C293S, the tested form may be a part): as the sequence (Q15365 whole entry A205V, the tested form may be a part) above, with C293S counted along it
Chain of hnRNP-E1(G292A) (Q15365 whole entry A205V/G292A, the tested form may be a part): as the sequence (Q15365 whole entry A205V, the tested form may be a part) above, with G292A counted along it

B1: 25-nt hnRNP-E1 mRNA 5'-UTR cis-element (ssRNA)
RNA: CUCCCGCCCGCUCCCGCUCGCUCCC
As for B1, the Kd is 2.02 nM with hnRNP-E1(G292A) and 0.39 nM in the data set with hnRNP-E1(C293S).

B2: 25-nt cis-element mutation 6 (ssRNA)
RNA: CUUCCGCCCGCUCCCGCUCGCUUCC
Turning to B2, the binding result in data set [1] is “no binding”.

What is called Kd is the equilibrium constant for the complex coming apart.
